Experimental data as given in publication PMC3876986, “The Velvet Family of Fungal Regulators Contains a DNA-Binding Domain Structurally Similar to NF-κB”.

Key:
Experiment in all cases: EMSA; EMSA: 10 mM HEPES/NaOH pH 7.4, 150 mM NaCl, ~53 pmol DNA in 10 ul, RT 15 min; DNA:protein molar ratios 1:0.3 to 1:9; 6% PAGE, 0.5% TBE, ethidium bromide
Conditions in all cases: protein: recombinant; tags: Strep-tag (C-terminal); chain copies: 2; blunt
[1] = target: T1, VosA1-190 K160A (Aspergillus nidulans, UniProt Q5BBX1 1-190, K160A)
T1 sequence: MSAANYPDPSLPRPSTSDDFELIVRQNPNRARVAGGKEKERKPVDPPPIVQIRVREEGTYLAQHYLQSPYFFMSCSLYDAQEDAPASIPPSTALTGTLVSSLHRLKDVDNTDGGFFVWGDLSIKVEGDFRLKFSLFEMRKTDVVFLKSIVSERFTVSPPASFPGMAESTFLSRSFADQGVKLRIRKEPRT

[2] = target: T2, VosA1-190 K37A/K39A (Aspergillus nidulans, UniProt Q5BBX1 1-190, K37A;K39A)
T2 sequence: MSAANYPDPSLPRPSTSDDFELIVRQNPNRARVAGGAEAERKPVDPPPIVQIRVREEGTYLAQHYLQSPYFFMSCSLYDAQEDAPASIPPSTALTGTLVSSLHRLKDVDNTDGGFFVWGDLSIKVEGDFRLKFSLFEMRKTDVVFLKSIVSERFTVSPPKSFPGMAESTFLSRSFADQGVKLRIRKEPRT

[3] = target: T3, VosA1-190 dead (Aspergillus nidulans, UniProt Q5BBX1 1-190, K37A;K39A;R41A;K42A)
T3 sequence: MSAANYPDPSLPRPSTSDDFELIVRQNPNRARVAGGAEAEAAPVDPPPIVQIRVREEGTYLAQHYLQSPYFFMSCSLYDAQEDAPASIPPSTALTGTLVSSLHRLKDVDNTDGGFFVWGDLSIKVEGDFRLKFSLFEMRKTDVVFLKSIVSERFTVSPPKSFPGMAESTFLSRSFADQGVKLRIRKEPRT

B1: brlA 35 bp probe (OHS301/302) (dsDNA)
DNA 1: ATTCGGCGACTAGGATCTTACTGGCCGCGGCCGAG
DNA 2: CTCGGCCGCGGCCAGTAAGATCCTAGTCGCCGAAT
binding result [1]: binds
binding result [2]: no binding
binding result [3]: no binding
